Data reported in publication PMC11123335.

Key:
pentameric IgM 2G12 = pentameric IgM 2G12 (UniProt P01591); assay: ELISA; competition: IgM coated (2 µg/mL); serially diluted ACB or AD2 mixed with a constant sC1q (10 µg/mL final); TBS with 2% PVP, 5 mM CaCl2, 1.5 mM MgCl2; room temperature; bound sC1q detected with anti-C1q HRP; relative IC50: OD at the highest mimetic value as 100%, without mimetic as 0%, approximate values
[1] = biological target: hexameric IgM 2G12 (human); assay: as above
pentameric IgM HB617 [2] = biological target: pentameric IgM HB617 (UniProt P01591); assay: as above
pentameric IgM HB617 [3] = biological target: pentameric IgM HB617 (UniProt P01591)

Row | Substance | maximal inhibition of sC1q binding (pentameric IgM 2G12) [%] | relative IC50 (pentameric IgM 2G12) [µg/mL] | maximal inhibition of sC1q binding [1] [%] | relative IC50 [1] [µg/mL] | maximal inhibition of sC1q binding (pentameric IgM HB617 [2]) [%] | relative IC50 (pentameric IgM HB617 [2]) [µg/mL] | percent inhibition of sC1q binding at 2.5–20 µg/mL ACB (lower end) [1] [%] | competitive complement activation ELISA, reduction in C4b deposition by ACB against sC1q on coated 5IgM HB617; 8-fold (20% reduction) to 16-fold (w/w) excess of ACB over sC1q (pentameric IgM HB617 [3]) [%]
1 | C1q mimetic ACB-AD2 (ACB fused to domain 2 of human serum albumin) (from UniProt P02745 115-245; P02747 115-245; P02746 117-253; P02768 211-403) | 23 | 1.3 | 47 | 0.6 | 39 | 1.3 |  | 
2 | C1q mimetic ACB (single-chain globular region of C1q) (from UniProt P02745 115-245; P02747 115-245; P02746 117-253) | 59 | 1.3 | 77 | 1.3 | 70 | 1.3 | 67 to 77 | 60
